From patent publication US20150376261A1 come the findings set out here.

Among the targets are M2Δi3R (human) (UniProt P08172); β2AR365N (human) (UniProt P07550); hβ1AR (human) (UniProt P08588).
Assay in all cases: cell-based or functional assay

Sequence of hβ1AR (human) (P08588 other isoform, or with tags, fused parts or gaps): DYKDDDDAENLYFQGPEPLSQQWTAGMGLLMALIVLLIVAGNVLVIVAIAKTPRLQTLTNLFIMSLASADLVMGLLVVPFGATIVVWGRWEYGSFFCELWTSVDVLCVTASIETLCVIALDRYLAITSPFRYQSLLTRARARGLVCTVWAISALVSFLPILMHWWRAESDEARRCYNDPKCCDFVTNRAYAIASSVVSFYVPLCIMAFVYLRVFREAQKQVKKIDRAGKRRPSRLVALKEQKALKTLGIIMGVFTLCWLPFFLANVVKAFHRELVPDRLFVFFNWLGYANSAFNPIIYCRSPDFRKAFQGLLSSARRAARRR
Sequence of M2Δi3R (human) (P08172 other isoform, or with tags, fused parts or gaps mutant limits assumed): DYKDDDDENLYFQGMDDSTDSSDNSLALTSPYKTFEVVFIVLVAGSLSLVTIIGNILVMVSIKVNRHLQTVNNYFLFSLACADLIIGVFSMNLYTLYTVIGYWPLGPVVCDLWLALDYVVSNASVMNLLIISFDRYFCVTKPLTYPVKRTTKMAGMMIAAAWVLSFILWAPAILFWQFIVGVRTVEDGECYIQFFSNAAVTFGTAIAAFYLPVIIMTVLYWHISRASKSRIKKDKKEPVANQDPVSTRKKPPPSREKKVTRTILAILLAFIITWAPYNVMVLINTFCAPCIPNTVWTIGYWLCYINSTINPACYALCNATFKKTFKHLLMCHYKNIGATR

B1: Nb9-1 (VHH)
VHH: QVQLQESGGGLVQAGGSLRLSCAASGHTFSSARMYWVRQAPGKEREFVAAISRSGFTYSADSVKGRFTISRDIANNTVYLQMNSLQPEDTAIYTCYAAYLDEFYNDYTHYWGLGTQVTVSS
With B1, in the assay with M2Δi3R (human), the IC50 ratio, carbachol: IC50 M2Δi3R / IC50high M2Δi3R-Nb9-1 fusion ([3H]-NMS competition, Sf9 membranes) came out at 67.2 and the IC50 ratio, oxotremorine M: IC50 M2Δi3R / IC50high M2Δi3R-Nb9-1 fusion stood at 316.

B2: Nb71 (VHH)
VHH: QVQLQESGGGLVQPGGSLRLSCAASGFAFSSYELRWYRQAPGKQHELVAGITTGGNTYYADSVKGRFTISRDNAKNTVYLQMSNLRPEDTAVYACNANWDLLSDYWGQGTQVTVSS
Turning to B2, in the assay with β2AR365N (human), the IC50 ratio, ICI-118,551: β2AR365N-Nb69 mock fusion / β2AR365N-Nb71 fusion amounted to 0.01; the IC50 ratio, alprenolol: β2AR365N-Nb69 mock fusion / β2AR365N-Nb71 fusion turned out to be 1.5; the IC50 ratio, carvedilol: β2AR365N-Nb69 mock fusion / β2AR365N-Nb71 fusion amounted to 0.6; the IC50 ratio, epinephrine: β2AR365N-Nb69 mock fusion / β2AR365N-Nb71 fusion stood at 2030. For the same molecule, in the assay with β2AR365N (human), the IC50 ratio, isoproterenol: β2AR365N-Nb69 mock fusion / β2AR365N-Nb71 fusion came out at 80 and the IC50 ratio, salbutamol: β2AR365N-Nb69 mock fusion / β2AR365N-Nb71 fusion was found to be 454.

B3: Nb80 (VHH)
VHH: QVQLQESGGGLVQAGGSLRLSCAASGSIFSINTMGWYRQAPGKQRELVAAIHSGGSTNYANSVKGRFTISRDNAANTVYLQMNSLKPEDTAVYYCNVKDYGAVLYEYDYWGQGTQVTVSS
In the case of B3, in the assay with β2AR365N (human), the IC50 ratio, ICI-118,551: β2AR365N-Nb69 mock fusion / β2AR365N-Nb80 fusion was determined as 0.023; the IC50 ratio, alprenolol: β2AR365N-Nb69 mock fusion / β2AR365N-Nb80 fusion worked out at 4; the IC50 ratio, carvedilol: non-fused β2AR365N / β2AR365N-Nb80 fusion is 0.22; the IC50 ratio, carvedilol: β2AR365N-Nb69 mock fusion / β2AR365N-Nb80 fusion was determined as 0.4. Further, in the assay with β2AR365N (human), the IC50 ratio, epinephrine: non-fused β2AR365N / β2AR365N-Nb80 fusion is 1380; the IC50 ratio, epinephrine: β2AR365N-Nb69 mock fusion / β2AR365N-Nb80 fusion ([3H]-DHA competition; Nb fused to the receptor) was 2070; the IC50 ratio, isoproterenol: β2AR365N-Nb69 mock fusion / β2AR365N-Nb80 fusion turned out to be 670; the IC50 ratio, salbutamol: β2AR365N-Nb69 mock fusion / β2AR365N-Nb80 fusion worked out at 373. In addition, in the assay with β2AR365N (human), the apparent potency shift, compound 9: IC50 β2AR365N-Nb69 / IC50 β2AR365N-Nb80 fusion was 71; the apparent potency shift, compound 10: IC50 β2AR365N-Nb69 / IC50 β2AR365N-Nb80 fusion stood at 94; the apparent potency shift, epinephrine: Nb80 fusion compared to Nb69 fusion (Example 19 experiment) was determined as 855; the apparent potency shift, fragment CC56213: IC50 β2AR365N-Nb69 / IC50 β2AR365N-Nb80 fusion came out at 22. In the assay with β2AR365N (human), the apparent potency shift, isoprotenerol: Nb80 fusion compared to Nb69 fusion (Example 19 experiment) is 155; the concentration of exogenous Nb80 at which the epinephrine IC50 of non-fused β2AR365N equals that of the fusion is 5 µM; the effective intramolecular concentration of Nb80 in the β2AR365N-Nb80 fusion is greater than 500 nM; the epinephrine potency shift: IC50 of the mock fusion / IC50 of non-fused β2AR365N with 500 nM exogenous Nb80 was found to be 87 fold. In addition, in the assay with β2AR365N (human), the epinephrine potency shift: IC50 of the mock fusion / IC50 of the β2AR365N-Nb80 fusion (Nb80 fused to the receptor) was 534 fold and the molar excess of exogenous Nb80 over β2AR needed to match the fusion was 12500 fold. Further, in the assay with hβ1AR (human), the IC50 ratio, ICI-118,551: IC50 hβ1AR-Nb69 / IC50high hβ1AR-Nb80 fusion amounted to 0.077; the IC50 ratio, alprenolol: IC50 hβ1AR-Nb69 / IC50high hβ1AR-Nb80 fusion was 0.988; the IC50 ratio, epinephrine: IC50 hβ1AR-Nb69 / IC50high hβ1AR-Nb80 fusion ([3H]-DHA competition, Sf9 membranes) worked out at 68.7.
